Residue numbers refer to the chain shown, from its start.
T1: rat NPR1 (rNPR1) (rat, UniProt P18910 29-469, limits assumed)
T1 construct: Soluble antigen
T1 sequence: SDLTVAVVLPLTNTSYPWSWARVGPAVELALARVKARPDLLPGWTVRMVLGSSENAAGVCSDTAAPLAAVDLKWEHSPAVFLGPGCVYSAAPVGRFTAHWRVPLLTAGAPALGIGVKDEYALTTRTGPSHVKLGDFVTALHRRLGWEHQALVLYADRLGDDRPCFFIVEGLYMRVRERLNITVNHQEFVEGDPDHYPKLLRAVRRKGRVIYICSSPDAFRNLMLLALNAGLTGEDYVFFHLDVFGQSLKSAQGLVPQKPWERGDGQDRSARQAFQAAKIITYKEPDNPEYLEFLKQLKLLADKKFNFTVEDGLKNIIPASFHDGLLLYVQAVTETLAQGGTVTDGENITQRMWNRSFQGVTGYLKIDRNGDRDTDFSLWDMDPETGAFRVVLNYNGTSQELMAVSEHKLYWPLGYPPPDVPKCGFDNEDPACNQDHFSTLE

T2: human Natriuretic Peptide Receptor 1 (hNPR1) (human, UniProt P16066 33-473, limits assumed)
T2 construct: pannings used NPR1-hFc; also called NPR1-hFc
T2 sequence: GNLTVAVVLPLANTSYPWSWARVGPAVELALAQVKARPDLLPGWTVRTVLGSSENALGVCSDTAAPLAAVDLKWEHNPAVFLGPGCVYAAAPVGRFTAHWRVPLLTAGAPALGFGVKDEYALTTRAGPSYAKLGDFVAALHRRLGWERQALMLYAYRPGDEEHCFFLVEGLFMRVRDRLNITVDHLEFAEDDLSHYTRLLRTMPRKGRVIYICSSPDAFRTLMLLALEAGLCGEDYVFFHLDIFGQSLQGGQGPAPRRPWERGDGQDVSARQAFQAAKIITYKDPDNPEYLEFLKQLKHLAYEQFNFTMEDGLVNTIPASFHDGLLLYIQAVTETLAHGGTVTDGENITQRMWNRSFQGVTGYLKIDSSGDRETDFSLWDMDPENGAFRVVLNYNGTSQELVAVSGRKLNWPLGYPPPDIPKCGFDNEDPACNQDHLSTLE

T3: hNPR1-ANP complex (human, UniProt P01160 124-151, limits assumed)
T3 construct: hNPR1 antigen in the presence of ANP; also called hNPR1 + 100 nM ANP
T3 sequence: T2 sequence
T3 sequence (peptide): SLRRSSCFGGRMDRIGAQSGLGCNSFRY

T4: rNPR1-ANP complex (rat, UniProt P01160 124-151 (human entry), limits assumed)
T4 construct: rNPR1 antigen in the presence of ANP; also called rNPR1 + 100 nM ANP
T4 sequence: T1 sequence
T4 sequence (peptide): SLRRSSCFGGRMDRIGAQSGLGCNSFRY

T5: human NPR1 on CHO-K1 cells (human, UniProt P16066 33-1061)
T5 sequence: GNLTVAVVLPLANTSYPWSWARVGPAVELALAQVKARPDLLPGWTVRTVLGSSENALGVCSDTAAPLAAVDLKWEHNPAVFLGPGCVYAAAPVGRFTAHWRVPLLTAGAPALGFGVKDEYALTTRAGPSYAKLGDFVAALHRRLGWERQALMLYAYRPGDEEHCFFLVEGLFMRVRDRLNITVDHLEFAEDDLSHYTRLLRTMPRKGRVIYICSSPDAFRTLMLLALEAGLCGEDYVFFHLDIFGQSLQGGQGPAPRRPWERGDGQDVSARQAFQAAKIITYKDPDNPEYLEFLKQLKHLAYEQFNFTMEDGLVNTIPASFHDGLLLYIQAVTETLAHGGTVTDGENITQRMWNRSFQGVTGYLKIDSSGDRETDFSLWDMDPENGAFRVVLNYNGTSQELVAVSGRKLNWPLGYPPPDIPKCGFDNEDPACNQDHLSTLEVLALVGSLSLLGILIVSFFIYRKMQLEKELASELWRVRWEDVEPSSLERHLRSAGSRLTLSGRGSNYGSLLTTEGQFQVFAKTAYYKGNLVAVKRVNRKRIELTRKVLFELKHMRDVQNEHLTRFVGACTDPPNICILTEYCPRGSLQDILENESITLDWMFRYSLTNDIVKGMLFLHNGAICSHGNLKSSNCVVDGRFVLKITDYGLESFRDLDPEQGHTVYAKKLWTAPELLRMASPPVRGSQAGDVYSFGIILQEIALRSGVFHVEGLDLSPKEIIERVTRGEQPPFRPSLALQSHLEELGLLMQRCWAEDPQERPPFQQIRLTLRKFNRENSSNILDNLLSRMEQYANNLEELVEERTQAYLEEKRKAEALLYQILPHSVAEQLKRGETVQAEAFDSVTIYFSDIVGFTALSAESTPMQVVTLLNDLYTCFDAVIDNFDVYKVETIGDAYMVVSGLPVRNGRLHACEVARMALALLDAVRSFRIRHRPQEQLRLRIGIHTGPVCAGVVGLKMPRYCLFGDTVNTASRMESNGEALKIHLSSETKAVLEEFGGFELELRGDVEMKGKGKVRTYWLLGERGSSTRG

T6: human NPR2 on CHO cells (human, UniProt P20594 23-1047)
T6 sequence (looked up): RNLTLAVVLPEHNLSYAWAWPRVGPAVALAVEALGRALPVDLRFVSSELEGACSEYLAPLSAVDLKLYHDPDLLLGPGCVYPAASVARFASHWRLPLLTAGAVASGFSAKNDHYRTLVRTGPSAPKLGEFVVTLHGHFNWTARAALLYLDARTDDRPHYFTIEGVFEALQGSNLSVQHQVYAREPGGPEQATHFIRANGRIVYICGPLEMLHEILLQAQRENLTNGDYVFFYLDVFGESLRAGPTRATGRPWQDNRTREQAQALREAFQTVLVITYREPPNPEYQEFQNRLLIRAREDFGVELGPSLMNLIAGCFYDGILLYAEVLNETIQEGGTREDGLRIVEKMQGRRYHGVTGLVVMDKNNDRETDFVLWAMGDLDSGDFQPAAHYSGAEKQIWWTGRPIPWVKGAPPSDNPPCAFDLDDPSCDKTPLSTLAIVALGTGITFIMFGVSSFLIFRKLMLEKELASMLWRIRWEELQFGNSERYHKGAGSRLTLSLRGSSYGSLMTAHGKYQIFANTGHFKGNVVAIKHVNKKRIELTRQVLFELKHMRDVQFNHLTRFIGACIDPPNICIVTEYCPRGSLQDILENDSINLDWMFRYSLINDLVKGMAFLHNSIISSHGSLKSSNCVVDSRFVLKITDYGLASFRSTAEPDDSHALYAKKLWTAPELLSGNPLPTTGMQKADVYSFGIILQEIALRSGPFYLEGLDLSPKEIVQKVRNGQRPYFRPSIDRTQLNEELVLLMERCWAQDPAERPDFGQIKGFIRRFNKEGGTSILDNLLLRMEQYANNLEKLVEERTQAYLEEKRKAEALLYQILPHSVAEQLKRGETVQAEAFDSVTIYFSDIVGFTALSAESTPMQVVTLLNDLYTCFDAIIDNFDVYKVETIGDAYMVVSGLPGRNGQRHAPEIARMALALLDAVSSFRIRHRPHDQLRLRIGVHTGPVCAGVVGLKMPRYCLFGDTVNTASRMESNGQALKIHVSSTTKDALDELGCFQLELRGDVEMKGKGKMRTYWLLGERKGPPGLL

B1: XX01 (FabCys format) (Fab, V domains shown)
VH: EVQLLESGGGLVQPGGSLRLSCAASGFTFNTHYIHWVRQAPGKGLEWVSSISSSGQSTYYADSVKGRFTISRDNSKNTLYLQMNSLRAEDTAVYYCARERGYVYYHMFDPWGQGTLVTVSS
VL: DIVLTQSPATLSLSPGERATLSCRASQSITRNYLAWYQQKPGQAPRLLIYGASSRATGIPARFSGSGSGTDFTLTISSLEPEDFAVYYCQQHSMYPRTFGQGTKVEIK
notes: Monovalent FabCys
B2: XX08 (FabCys format) (Fab, V domains shown)
VH: B1 VH with S52G, S53G, S54Q, Q56G, S57M, Y59L
VL: B1 VL
notes: Monovalent FabCys
B3: XX04 (FabCys format) (Fab, V domains shown)
VH: QVQLLESGGGLVQPGGSLRLSCAASGFTFSSYWMNWVRQAPGKGLEWVSAISSDGSYTYYADSVKGRFTISRDNSKNTLYLQMNSLRAEDTAVYYCARDRYSMIYSYGAGAFDYWGQGTLVTVSS
VL: DIQMTQSPSSLSASVGDRVTITCRASQGISSYLAWYQQKPGKAPKLLIYTASTLQSGVPSRFSGSGSGTDFTLTISSLQPEDFATYYCQQEWVKPRTFGQGTKVEIK
notes: Monovalent FabCys
B4: XX07 (FabCys format) (Fab, V domains shown)
VH: B3 VH
VL: B3 VL with E91I, V93T, K94V
notes: Monovalent FabCys
B5: XX12 (FabCys format) (Fab, V domains shown)
VH: B3 VH
VL: B3 VL with E91I, V93M, K94A
notes: Monovalent FabCys
B6: XX03 (FabCys format) (Fab, V domains shown)
VH: B3 VH with Q1E, A50V, S52E, D54K, S56N, T58I, Y59F
VL: B3 VL with Q89M, E91S, W92Y, V93E
notes: Monovalent FabCys
B7: XX06 (FabCys format) (Fab, V domains shown)
VH: B3 VH
VL: B3 VL with E91T, V93R
notes: Monovalent FabCys
B8: ZZ05 (FabCys format) (Fab, V domains shown)
VH: EVQLVQSGAEVKKPGESLKISCKGSGYSFTSYWISWVRQMPGKGLEWMGIIYPGTSYTRYSPSFQGQVTISADKSISTAYLQWSSLKASDTAMYYCARGSLPGLLGFDHWGQGTLVTVSS
VL: QSVLTQPPSVSGAPGQRVTISCTGSSSNIGAGYDVHWYQQLPGTAPKLLIYGNSNRPNGVPDRFSGSKSGTSASLAITGLQAEDEADYYCQSYGAFPRFVVFGGGTKLTVL
notes: Monovalent FabCys
B9: WW06 (FabCys format) (Fab, V domains shown)
VH: QVQLVQSGAEVKKPGESLKISCKGSGYSFTSYWIAWVRQMPGKGLEWMGRIDPDNSYTRYSPSFQGQVTISADKSISTAYLQWSSLKASDTAMYYCARWLSPGYALGEQPAGMDHWGQGTLVTVSS
VL: DIVLTQPPSVSGAPGQRVTISCTGSSSNIGAGYAVHWYQQLPGTAPKLLIYSNNKRPSGVPDRFSGSKSGTSASLAITGLQAEDEADYYCQSYDLQKSSRVFGGGTKLTVL
B10: XX16 (anti-NPR1 IgG) (antibody, V domains shown)
VH: B3 VH with Q1E, A50V, S52E, D54K, S56N, T58I, Y59F
VL: B3 VL with E91T, V93R
B11: XX15 (IgG) (antibody, V domains shown)
VH: B3 VH with Q1E, A50V, S52E, D54K, S56N, T58I, Y59F
VL: B3 VL
B12: XX18 (IgG) (antibody, V domains shown)
VH: B3 VH with Q1E, A50V, S52E, D54K, S56N, T58I, Y59F
VL: B3 VL with V93A

target: T1, rat NPR1 (rNPR1); test: SET, FabCys

Binder	rat/human KD ratio
B1	< 5
B2	< 5
B3	< 5
B4	< 5
B5	< 5
B6	< 5
B7	< 5

target: T2, human Natriuretic Peptide Receptor 1 …; test: SET, FabCys

Binder	Kd [nM]
B1	43
B2	46
B3	32
B4	21
B5	16
B6	22
B7	10

target: T3, hNPR1-ANP complex; test: SET, FabCys

Binder	Kd [nM]
B1	0.3
B2	0.3
B3	0.1
B4	0.2
B5	0.2
B6	0.2
B7	0.1

target: T1, rat NPR1 (rNPR1); test: SET, FabCys; remark: another data set of the same source

Binder	Kd [nM]
B1	1.4
B2	1.8
B3	3.3
B4	2.9
B5	3
B6	1.1
B7	2.3

target: T4, rNPR1-ANP complex; test: SET, FabCys

Binder	Kd [nM]
B1	0.5
B2	0.2
B3	0.3
B4	0.5
B5	0.5
B6	0.1
B7	0.3

target: T2, human Natriuretic Peptide Receptor 1 …; test: SET, FabCys; remark: another data set of the same source

Binder	Kd [nM]
B8	0.74

target: T3, hNPR1-ANP complex; test: SET, FabCys; remark: another data set of the same source

Binder	Kd [nM]
B8	1.2

target: T5, human NPR1 on CHO-K1 cells; test: cell-based or functional assay

Binder	cGMP conc [nM] at 2 µM FabCys, +0.075 nM ANP [nM]	cGMP conc [nM] at 2 µM FabCys, without ANP [nM]
B9	251	281

target: T6, human NPR2 on CHO cells; test: cell-based or functional assay

Binder	cGMP generation EC50 [nM]	cGMP generation Y max (% of ANP)
B10	> 500	< 1 % of ANP
B11	> 500	< 1 % of ANP
B12	> 500	< 1 % of ANP
